These results are taken from patent US7056679 (ANTYRA, dated 2006).

No end group written: not given here.

In this assay the target is T1, DGI-2 (UniProt Q15004 1-111, limits assumed).
T1 construct: Soluble recombinant DGI-2 made by in vitro translation (RTS, pIVEX2.3-MCS vector) and coated on plates for the ELISA; vector tag not described; also called KIAA0101; DGI-2 polypeptide
T1 sequence (looked up): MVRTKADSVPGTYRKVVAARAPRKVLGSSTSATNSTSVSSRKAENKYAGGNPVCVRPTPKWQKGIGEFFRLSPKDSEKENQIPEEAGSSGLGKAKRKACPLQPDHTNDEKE
Description: phage ELISA, coated DGI-2. How it is done: For analysis of individual target binders, colonies were picked and phage prepared as described above using helper phage, M13KO7. Ninety-six-well microtiter plates were coated with 500 ng/well of specific target protein, 500 ng/well lactate dehydrogenase (LDH) irrelevant or non-specific target, 500 ng/well of positive control antibody raised against ETAG, and negative control of non-fat milk powder-PBS 2% at 4° C. overnight. Plates were then blocked with 350 microliters/well PBS containing 2% non-fat milk for 1 hr at room temperature. One hundred microliters per well of phage from isolated clones were added and plates were incubated at room temperature for 2 hr after centrifuging samples for 20 minutes at 3500 rpm at 4° C. The phage solution was then removed, and the wells were washed three times with PBS at room temperature. Antibody raised against M13 conjugated to horseradish peroxidase (Pharmacia) was diluted 1:3000 in PBS-Tween and added to each well (100 µl/well). Incubation was for 1 hr at room temperature, followed by washing with PBS-(0.5%) Tween 3 times as described. Color was developed by addition of ABTS solution (100 µl/well; Boehringer, Indianapolis, Ind.). Plates were analyzed at 405 nm. A clone was considered "positive" if the $A405$ of the well was $\geq$2-fold over background.
In general terms: In an ELISA, binding on a coated surface is turned into a signal by an enzyme label.

For DQRVVGSGWFERLRNWYDRA (on M13 phage, pIII fusion with E-tag) [DGI-2-20R-4-G99], the binding result is given as “binds”.

Regarding QLDCLVWGLPGLRCDRPLEQ (not fully specified (bridges); cysteine pairing not given here, on M13 phage, pIII fusion with E-tag) [DGI-2-20R-3-B10], the binding result is given as “binds”.

In the case of WWERFVWGRPVDDGVVVMAT (on M13 phage, pIII fusion with E-tag) [DGI-2-20R-3-B1], the binding result is “binds”.

Regarding RDTMCGSVSWGIPGCEYSGM (not fully specified; cysteine pairing not given here, on M13 phage, pIII fusion with E-tag) [DGI-2-20R-4-G122], the binding result was “binds”.

Consider SWACGLLWPGECGSQVARRG (not fully specified; cysteine pairing not given here, on M13 phage, pIII fusion with E-tag) [DGI-2-20R-3-D127], for which the binding result was “binds”.

With WGCVFRQWASGSGAGCARRH (not fully specified; cysteine pairing not given here, on M13 phage, pIII fusion with E-tag) [DGI-2-20R-3-D9], the binding result was “binds”.

For ERVSKCVGRGSGRSVGQFGG (on M13 phage, pIII fusion with E-tag) [DGI-2-20F-PP-F1], the binding result is “binds”.

EGNWFCAVFRGFCVGDRGPE (not fully specified (bridges); cysteine pairing not given here, on M13 phage, pIII fusion with E-tag) [DGI-2-20R-3-A1]: the binding result is listed as “binds”.

On to TIDVARRFGYGWWDLWLDGD (on M13 phage, pIII fusion with E-tag) [DGI-2-20R-3-C3], for which the binding result is reported as “binds”.

Turning to QMSRVAFSPGESWRRWVEGV (on M13 phage, pIII fusion with E-tag) [DGI-2-20R-3-A2], the binding result is listed as “binds”.

Turning to RRILPWSFPGCGRMC (not fully specified; cysteine pairing not given here, on M13 phage, pIII fusion with E-tag) [DGJ-2-20R-3-A10], the binding result is “binds”.

For SLECWAMPGMVVRLVGCDGP (not fully specified (bridges); cysteine pairing not given here, on M13 phage, pIII fusion with E-tag) [DGI-2-20R-4-H112], the binding result is given as “binds”.

As to VCGQRVARMQLNKTIRKLDS (on M13 phage, pIII fusion with E-tag) [DGI-2-20F-PP-A6], the binding result is “binds”.

For RDTTSQWSWISRGWEFPGWR (on M13 phage, pIII fusion with E-tag) [DGI-2-20R-3-C2], the binding result is on record as “binds”.

On to VSFAHDWGRWWYQWEVG (on M13 phage, pIII fusion with E-tag) [DGI-2-20R-4-G22], for which the binding result is on record as “binds”.

QVGGMTQVGATVLSVVTGRGSCDGEDAWYPPGVTVGLGLC (on M13 phage, pIII fusion with E-tag) [DGI-2-40F-4-F97]: the binding result is reported as “binds”.

In the case of DRVARLATPTAGTMAAGSLGYERTVGCDSQDWFRCVVEGL (on M13 phage, pIII fusion with E-tag) [DGI-2-40F-3-D1044], the binding result is recorded as “binds”.

With VLGADAGMIWFMDGCGIRCR (not fully specified; cysteine pairing not given here, on M13 phage, pIII fusion with E-tag) [DGI-2-20R-4-E6], the binding result is on record as “binds”.

Take RSIRLQLIDEACQFFDGLCT (not fully specified; cysteine pairing not given here, on M13 phage, pIII fusion with E-tag) [DGI-2-20R-3-A8]: the binding result is given as “binds”.
